Data as given in US20250277023A1 (published 2025).

T1: TIGIT (on CHO-TIGIT cells) (UniProt Q495A1 22-244)
T1 chain: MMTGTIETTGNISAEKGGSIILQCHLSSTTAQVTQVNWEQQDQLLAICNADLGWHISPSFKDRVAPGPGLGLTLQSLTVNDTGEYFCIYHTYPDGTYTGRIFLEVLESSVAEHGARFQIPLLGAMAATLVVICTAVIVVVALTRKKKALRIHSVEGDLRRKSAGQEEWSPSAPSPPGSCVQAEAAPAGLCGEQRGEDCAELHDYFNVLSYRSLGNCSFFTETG


Columns and labels:
[1] = target: T2, PD-L1 (on CHO-PD-L1 cells) (UniProt Q9NZQ7 19-290); assay: FACS binding; Fig. 21
[2] = target: T1, TIGIT (on CHO-TIGIT cells); assay: FACS binding; Fig. 17
[3] = target: T2, PD-L1 (on CHO-PD-L1 cells); assay: FACS binding; Fig. 24
[4] = target: T2, PD-L1 (on CHO-PD-L1 cells); assay: FACS binding; Fig. 25
[5] = target: T2, PD-L1 (on CHO-PD-L1 cells); assay: FACS binding; Fig. 22

T2 sequence (Q9NZQ7 19-290): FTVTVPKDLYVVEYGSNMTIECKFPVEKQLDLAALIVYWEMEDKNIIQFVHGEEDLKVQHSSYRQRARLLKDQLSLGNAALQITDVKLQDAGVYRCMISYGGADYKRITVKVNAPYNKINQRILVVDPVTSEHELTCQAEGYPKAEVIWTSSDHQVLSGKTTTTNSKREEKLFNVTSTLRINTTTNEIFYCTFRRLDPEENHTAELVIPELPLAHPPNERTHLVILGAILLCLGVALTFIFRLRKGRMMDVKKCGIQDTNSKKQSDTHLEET

EC50 [1] [nM] | EC50 [3] [nM] | EC50 [4] [nM] | Binder | further results
0.43 | – | – | R0952: TIGIT_VH_IL15/TIGIT_VL_IL15RA/PD-L1-Fab (bispecific antibody) chain 1: not shown chain 2: DIVMTQTPASVEVAVGGTVTIKCQASQSISSYLNWYQQKPGQPPKLLIYDALKLASGVPSRFSGSGSGTEYTLTISGVESADAATYYCQQEHSVGNVDNVFGGGTEVVVKGGGGSGGGGSGGGGSGGGGSGITCPPPMSVEHADIWVKSYSLYSRERYICNSGFKRKAGTSSLTECVLNKATNVAHWTTPSLKCIRDPALVHQRPAPPSTVTTAGVTPQPESLSPSGKEPAASSPSSNNTAATTAAIVPGSQLMPSKSPSTGTTEISSHESSHGTPSQTTAKNWELTASASHQPPGVYPQGHSDTT heavy: EVQLLESGGGLVQPGGSLRLSCAASGFTFSSYIMMWVRQAPGKGLEWVSSIYPSGGITFYADTVKGRFTISRDNSKNTLYLQMNSLRAEDTAVYYCARIKLGTVTTVDYWGQGTLVTVSSAKTTAPSVYPLAPVCGDTTGSSVTLGCLVKGYFPEPVTLTWNSGSLSSGVHTFPAVLQSDLYTLSSSVTVTSSTWPSQSITCNVAHPASSTKVDKKIEPRGPTIKPCPPCKCPAPNLLGGPSVFIFPPKIKDVLMISLSPIVTCVVVDVSEDDPDVQISWFVNNVEVHTAQTQTHREDYNSTLRVVSALPIQHQDWMSGKEFKCKVNNKDLPAPIERTISKPKGSVRAPQVYVLPPPEEEMTKKQVTLTCRVTDFMPEDIYVEWTNNGKTELNYKNTEPVLKSDGSYFMASKLRVEKKNWVERNSYSCSVVHEGLHNHHTTKSFSRTPGK light: QSALTQPASVSGSPGQSITISCTGTSSDVGGYNYVSWYQQHPGKAPKLMIYDVSNRPSGVSNRFSGSKSGNTASLTISGLQAEDEADYYCSSYTSSSTRVFGTGTKVTVLRTDAAPTVSIFPPSSEQLTSGGASVVCFLNNFYPKDINVKWKIDGSERQNGVLNSWTDQDSKDSTYSMSSTLTLTKDEYERHNSYTCEATHKTSTSPIVKSFNRNEC | –
0.46 | – | – | R0951: TIGIT_VH_IL15RA/TIGIT_VL_IL15/PD-L1-Fab (bispecific antibody) chain 1: QVQLESEGGLFKPTDTLTLTCTVSGSSLSSSYMSWVRQAPGKGLEWIGIIGSNGNTYYANWAKGRFTISKTSTTVELKITSPTTEDTATYFCARGGYRTSGMDPWGPGTLVTVSSGGGGSGGGGSGGGGSGGGGSGITCPPPMSVEHADIWVKSYSLYSRERYICNSGFKRKAGTSSLTECVLNKATNVAHWTTPSLKCIRDPALVHQRPAPPSTVTTAGVTPQPESLSPSGKEPAASSPSSNNTAATTAAIVPGSQLMPSKSPSTGTTEISSHESSHGTPSQTTAKNWELTASASHQPPGVYPQGHSDTTEPRGPTIKPCPPCKCPAPNLLGGPSVFIFPPKIKDVLMISLSPIVTCVVVDVSEDDPDVQISWFVNNVEVHTAQTQTHREDYNSTLRVVSALPIQHQDWMSGKEFKCKVNNKDLPAPIERTISKPKGSVRAPQVYVLPPPEEEMTKKQVTLWCMVTDFMPEDIYVEWTNNGKTELNYDNTEPVLDSDGSYFMYSDLRVEKKNWVERNSYSCSVVHEGLHNHHTTKSFSRTPGK chain 2: not shown heavy: EVQLLESGGGLVQPGGSLRLSCAASGFTFSSYIMMWVRQAPGKGLEWVSSIYPSGGITFYADTVKGRFTISRDNSKNTLYLQMNSLRAEDTAVYYCARIKLGTVTTVDYWGQGTLVTVSSAKTTAPSVYPLAPVCGDTTGSSVTLGCLVKGYFPEPVTLTWNSGSLSSGVHTFPAVLQSDLYTLSSSVTVTSSTWPSQSITCNVAHPASSTKVDKKIEPRGPTIKPCPPCKCPAPNLLGGPSVFIFPPKIKDVLMISLSPIVTCVVVDVSEDDPDVQISWFVNNVEVHTAQTQTHREDYNSTLRVVSALPIQHQDWMSGKEFKCKVNNKDLPAPIERTISKPKGSVRAPQVYVLPPPEEEMTKKQVTLTCRVTDFMPEDIYVEWTNNGKTELNYKNTEPVLKSDGSYFMASKLRVEKKNWVERNSYSCSVVHEGLHNHHTTKSFSRTPGK light: QSALTQPASVSGSPGQSITISCTGTSSDVGGYNYVSWYQQHPGKAPKLMIYDVSNRPSGVSNRFSGSKSGNTASLTISGLQAEDEADYYCSSYTSSSTRVFGTGTKVTVLRTDAAPTVSIFPPSSEQLTSGGASVVCFLNNFYPKDINVKWKIDGSERQNGVLNSWTDQDSKDSTYSMSSTLTLTKDEYERHNSYTCEATHKTSTSPIVKSFNRNEC | –
– | – | – | R0774 (Tigit monoclonal antibody) (antibody, V domains shown) VH: QVQLVQSGAEVKKPGSSVKVSCKASGYSFTSYWMNWVRQAPGQGLEWIGMIRPSDSETRLNQMFKDRVTITVDKSTSTAYMELSSLRSEDTAVYYCAGIHDYGHGAYWGQGTLVTVSS VL: DIQMTQSPSSLSASVGDRVTITCRASENIYSNLAWYQQKPGKSPKLLVYAASHLPDGVPSRFSGSGSGTDYSLTISSLQPEDFATYYCQHFWGTPRTFGQGTKLEIK | EC50 [2]: 0.678 nM
– | 2.01 | 2.91 | R0968 (PD-L1 monoclonal antibody) (antibody, V domains shown) VH: QVQLQESGPGLVKPSETLSLTCAVYGDSITSGYWNWIRKPPGKCLEYIGYISYTGSTYQNPSLKSRITMSRDTSKNQYYLKLSSVTAADTAVYYCARSRAWIRTYFDYWGQGTLVTVSS VL: DIQMTQSPSSLSASVGDRVTITCSVSSSISSSNLHWYQQKPGKAPKPWIYGTSNLASGVPSRFSGSGSGTDYTLTISSLQPEDFATYYCQQWSSYPLTFGCGTKLEIK | –
– | 2 | 2.08 | R1072: TIGIT_VH_IL15RA/TIGIT_VL_IL15/PD-L1-Fab (bispecific antibody) chain 1: QVQLVQSGAEVKKPGSSVKVSCKASGYSFTSYWMNWVRQAPGQGLEWIGMIRPSDSETRLNQMFKDRVTITVDKSTSTAYMELSSLRSEDTAVYYCAGIHDYGHGAYWGQGTLVTVSSGGGGSGGGGSGGGGSGGGGSGITCPPPMSVEHADIWVKSYSLYSRERYICNSGFKRKAGTSSLTECVLNKATNVAHWTTPSLKCIRDPALVHQRPAPPSTVTTAGVTPQPESLSPSGKEPAASSPSSNNTAATTAAIVPGSQLMPSKSPSTGTTEISSHESSHGTPSQTTAKNWELTASASHQPPGVYPQGHSDTTEPKSSDKTHTCPPCPAPELLGGPSVFLFPPKPKDTLMISRTPEVTCVVVDVSHEDPEVKFNWYVDGVEVHNAKTKPREEQYNSTYRVVSVLTVLHQDWLNGKEYKCKVSNKALPAPIEKTISKAKGQPREPQVYTLPPSREEMTKNQVSLTCRVKGFYPSDIAVEWESNGQPENNYKTTPPVLKSDGSFFLASKLTVDKSRWQQGNVFSCSVMHEALHNHYTQKSLSLSPGK chain 2: DIQMTQSPSSLSASVGDRVTITCRASENIYSNLAWYQQKPGKSPKLLVYAASHLPDGVPSRFSGSGSGTDYSLTISSLQPEDFATYYCQHFWGTPRTFGQGTKLEIKGGGGSGGGGSGGGGSGGGGSGNWVNVISDLKKIEDLIQSMHIDATLYTESDVHPSCKVTAMKCFLLELQVISLESGDASIHNTVQDLIILANNSLSSNGNVTESGCKECEELEEKNIKEFLQSFVHIVQMFINTS heavy: QVQLQESGPGLVKPSETLSLTCAVYGDSITSGYWNWIRKPPGKGLEYIGYISYTGSTYQNPSLKSRITMSRDTSKNQYYLKLSSVTAADTAVYYCARSRAWIRTYFDYWGQGTLVTVSSASTKGPSVFPLAPSSKSTSGGTAALGCLVKDYFPEPVTVSWNSGALTSGVHTFPAVLQSSGLYSLSSVVTVPSSSLGTQTYICNVNHKPSNTKVDKRVEPKSCDKTHTCPPCPAPELLGGPSVFLFPPKPKDTLMISRTPEVTCVVVDVSHEDPEVKFNWYVDGVEVHNAKTKPREEQYNSTYRVVSVLTVLHQDWLNGKEYKCKVSNKALPAPIEKTISKAKGQPREPQVYTLPPSREEMTKNQVSLWCLVKGFYPSDIAVEWESNGQPENNYDTTPPVLDSDGSFFLYSDLTVDKSRWQQGNVFSCSVMHEALHNHYTQKSLSLSPGK light: DIQMTQSPSSLSASVGDRVTITCSVSSSISSSNLHWYQQKPGKAPKPWIYGTSNLASGVPSRFSGSGSGTDYTLTISSLQPEDFATYYCQQWSSYPLTFGQGTKLEIKRTVAAPSVFIFPPSDEQLKSGTASVVCLLNNFYPREAKVQWKVDNALQSGNSQESVTEQDSKDSTYSLSSTLTLSKADYEKHKVYACEVTHQGLSSPVTKSFNRGEC | EC50 [5]: 3.73 nM
– | – | 1.56 | R1109: TIGIT_VH_IL15RA (sushi65)/TIGIT_VL_IL15/PD-L1-Fab (bispecific antibody) chain 1: QVQLVQSGAEVKKPGSSVKVSCKASGYSFTSYWMNWVRQAPGQGLEWIGMIRPSDSETRLNQMFKDRVTITVDKSTSTAYMELSSLRSEDTAVYYCAGIHDYGHGAYWGQGTLVTVSSGGGGSGGGGSGGGGSGGGGSGITCPPPMSVEHADIWVKSYSLYSRERYICNSGFKRKAGTSSLTECVLNKATNVAHWTTPSLKCIREPKSSDKTHTCPPCPAPELLGGPSVFLFPPKPKDTLMISRTPEVTCVVVDVSHEDPEVKFNWYVDGVEVHNAKTKPREEQYNSTYRVVSVLTVLHQDWLNGKEYKCKVSNKALPAPIEKTISKAKGQPREPQVYTLPPSREEMTKNQVSLTCRVKGFYPSDIAVEWESNGQPENNYKTTPPVLKSDGSFFLASKLTVDKSRWQQGNVFSCSVMHEALHNHYTQKSLSLSPGK chain 2: DIQMTQSPSSLSASVGDRVTITCRASENIYSNLAWYQQKPGKSPKLLVYAASHLPDGVPSRFSGSGSGTDYSLTISSLQPEDFATYYCQHFWGTPRTFGQGTKLEIKGGGGSGGGGSGGGGSGGGGSGNWVNVISDLKKIEDLIQSMHIDATLYTESDVHPSCKVTAMKCFLLELQVISLESGDASIHNTVQDLIILANNSLSSNGNVTESGCKECEELEEKNIKEFLQSFVHIVQMFINTS heavy: QVQLQESGPGLVKPSETLSLTCAVYGDSITSGYWNWIRKPPGKGLEYIGYISYTGSTYQNPSLKSRITMSRDTSKNQYYLKLSSVTAADTAVYYCARSRAWIRTYFDYWGQGTLVTVSSASTKGPSVFPLAPSSKSTSGGTAALGCLVKDYFPEPVTVSWNSGALTSGVHTFPAVLQSSGLYSLSSVVTVPSSSLGTQTYICNVNHKPSNTKVDKRVEPKSCDKTHTCPPCPAPELLGGPSVFLFPPKPKDTLMISRTPEVTCVVVDVSHEDPEVKFNWYVDGVEVHNAKTKPREEQYNSTYRVVSVLTVLHQDWLNGKEYKCKVSNKALPAPIEKTISKAKGQPREPQVYTLPPSREEMTKNQVSLWCLVKGFYPSDIAVEWESNGQPENNYDTTPPVLDSDGSFFLYSDLTVDKSRWQQGNVFSCSVMHEALHNHYTQKSLSLSPGK light: DIQMTQSPSSLSASVGDRVTITCSVSSSISSSNLHWYQQKPGKAPKPWIYGTSNLASGVPSRFSGSGSGTDYTLTISSLQPEDFATYYCQQWSSYPLTFGQGTKLEIKRTVAAPSVFIFPPSDEQLKSGTASVVCLLNNFYPREAKVQWKVDNALQSGNSQESVTEQDSKDSTYSLSSTLTLSKADYEKHKVYACEVTHQGLSSPVTKSFNRGEC | –
